Test system: peptide library, one residue held at a place counted from the S/T acceptor
Assay: relative phosphorylation of the sub-library (ratio to the mean residue at this position); higher = residue favoured
Procedure, shortened: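 Human or orthologue kinase constructs, purified and recombinant, were incubated under kinase-specific conditions in 384-well plates with biotinylated degenerate peptide sub-libraries. Each sub-library fixed one residue at one position around a central Ser/Thr. Incubations lasted 90 min with peptides at 50 μM and 50 μM ATP spiked with γ-32P-ATP, after which spots on streptavidin membranes were phosphorimaged and quantified by densitometry. Relative sub-library phosphorylation is a ratio to the mean residue at that position.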

Sequence of GSK3B, construct: Full length, human (P49841 whole entry, looked up): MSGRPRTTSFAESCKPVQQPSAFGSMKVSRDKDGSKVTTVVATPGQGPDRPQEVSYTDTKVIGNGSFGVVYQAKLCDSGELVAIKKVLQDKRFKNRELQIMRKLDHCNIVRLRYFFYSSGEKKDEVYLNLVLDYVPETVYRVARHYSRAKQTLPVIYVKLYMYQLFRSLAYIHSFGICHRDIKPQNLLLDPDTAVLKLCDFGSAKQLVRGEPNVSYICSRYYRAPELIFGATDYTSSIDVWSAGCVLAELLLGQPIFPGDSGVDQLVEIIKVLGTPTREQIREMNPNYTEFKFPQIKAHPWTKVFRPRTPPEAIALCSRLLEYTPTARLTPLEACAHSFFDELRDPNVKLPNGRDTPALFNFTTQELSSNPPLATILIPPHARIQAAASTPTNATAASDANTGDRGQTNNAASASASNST
Sequence of GRK4, construct: Full length, human (P32298 whole entry, looked up): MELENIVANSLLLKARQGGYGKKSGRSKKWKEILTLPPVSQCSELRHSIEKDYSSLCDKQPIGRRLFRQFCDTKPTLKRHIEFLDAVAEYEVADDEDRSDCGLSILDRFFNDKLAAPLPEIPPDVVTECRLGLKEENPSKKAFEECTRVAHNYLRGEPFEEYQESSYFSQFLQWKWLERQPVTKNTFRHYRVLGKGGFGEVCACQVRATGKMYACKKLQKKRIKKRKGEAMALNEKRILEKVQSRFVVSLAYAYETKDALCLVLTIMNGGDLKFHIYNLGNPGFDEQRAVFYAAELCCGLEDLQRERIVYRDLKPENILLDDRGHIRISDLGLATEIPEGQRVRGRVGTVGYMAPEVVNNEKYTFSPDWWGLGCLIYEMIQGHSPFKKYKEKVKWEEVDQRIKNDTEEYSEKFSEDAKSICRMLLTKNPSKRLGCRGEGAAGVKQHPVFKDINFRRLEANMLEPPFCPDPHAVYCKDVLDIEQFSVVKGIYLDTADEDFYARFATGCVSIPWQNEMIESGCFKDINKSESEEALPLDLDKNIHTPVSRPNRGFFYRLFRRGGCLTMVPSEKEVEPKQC
Sequence of HASPIN, construct: aa452-798, human (Q8TF76 452-798, looked up): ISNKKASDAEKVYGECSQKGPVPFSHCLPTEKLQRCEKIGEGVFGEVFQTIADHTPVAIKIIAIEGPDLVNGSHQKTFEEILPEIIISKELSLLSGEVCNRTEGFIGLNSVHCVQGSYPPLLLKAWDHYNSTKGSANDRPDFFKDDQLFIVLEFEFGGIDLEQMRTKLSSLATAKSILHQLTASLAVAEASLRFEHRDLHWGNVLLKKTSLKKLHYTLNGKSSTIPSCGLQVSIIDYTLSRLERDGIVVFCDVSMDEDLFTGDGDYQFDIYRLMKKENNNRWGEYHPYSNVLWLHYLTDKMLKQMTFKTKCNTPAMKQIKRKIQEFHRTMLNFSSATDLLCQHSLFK

GRK4, construct: Full length, human (from UniProt P32298)
relative phosphorylation
Details	at +1	at +2	at +3	at +4	at -1	at -2	at -3	at -4	at -5
A fixed	0.613	1.5	0.747	0.859	0.654	0.895	0.863	0.994	1
D fixed	0.683	1.24	1.53	1.65	1.57	2.39	1.88	1.75	1.83
E fixed	1.41	0.872	1.57	1.51	1.2	1.95	1.88	1.69	1.48
F fixed	1.52	1.23	1.51	1.17	0.998	0.992	0.902	0.854	0.992
G fixed	0.577	0.879	0.953	0.928	0.619	0.983	0.927	0.965	1.02
H fixed	0.879	0.954	0.99	0.911	1.92	0.855	0.911	0.897	0.991
I fixed	1.57	1.54	0.741	0.779	0.637	0.649	0.697	0.752	0.695
K fixed	0.455	0.414	0.432	0.614	0.492	0.547	0.612	0.778	0.89
L fixed	1.01	0.356	0.763	0.777	0.882	0.619	0.745	0.835	0.796
M fixed	1.44	0.717	0.918	0.894	0.792	0.681	0.858	0.874	0.794
N fixed	0.674	0.753	0.685	0.906	1.28	1.18	1.03	1.05	0.954
P fixed	0.249	0.522	0.928	1.3	0.607	0.77	1.2	0.977	0.892
Q fixed	1.28	0.613	0.662	0.903	0.805	0.872	0.912	0.839	0.86
R fixed	0.602	0.408	0.554	0.654	0.542	0.789	0.787	0.797	0.814
V fixed	1.75	1.85	0.782	0.855	1.21	0.71	0.721	0.812	0.773
W fixed	1.16	1.73	2.11	1.29	0.812	1.21	0.941	1.09	1.25
Y fixed	1.12	1.43	1.12	1	1.97	0.903	1.13	1.05	0.975
pThr fixed	1.45	0.994	1.12	2.32	0.656	3.34	3.2	1.75	1.4
pTyr fixed	1.46	1.33	1.25	1.81	1.73	3.38	2.82	2.06	1.71

GSK3B, construct: Full length, human (from UniProt P49841)
relative phosphorylation
Details	at +1	at +2	at +3	at +4	at -1	at -2	at -3	at -4	at -5
A fixed	0.927	1.01	0.893	0.871	1.05	1.09	1.63	1.02	1.15
D fixed	0.826	0.857	0.911	0.938	0.885	0.92	0.898	0.969	0.83
E fixed	0.818	0.917	1.23	2.42	0.855	0.898	0.865	0.851	0.83
F fixed	0.942	1.05	1.06	0.871	0.863	0.855	0.812	0.918	1.05
G fixed	0.928	0.92	0.966	0.843	1.17	1.1	1.47	1.18	1.21
H fixed	0.985	1.16	1.1	0.988	1.02	0.885	0.883	0.989	1.02
I fixed	1.02	0.984	0.929	0.795	0.889	1.01	0.871	0.913	1
K fixed	1.02	1.02	1.01	0.983	1.1	1.12	0.935	1.11	0.979
L fixed	0.966	0.994	0.923	0.849	0.916	0.882	0.785	0.966	1.03
M fixed	0.975	0.99	1.06	0.911	1.08	0.882	0.891	0.943	0.968
N fixed	0.963	1.12	0.983	0.992	1.04	0.935	0.899	1.02	0.855
P fixed	1.77	0.904	0.972	0.942	1.18	1.23	1.13	1.08	1.1
Q fixed	1	1.09	0.986	0.92	1.09	0.931	0.889	0.942	0.895
R fixed	1.01	1.05	1.05	0.848	1.06	1.48	1.36	1.06	0.973
V fixed	1.02	0.908	0.887	0.8	0.916	0.977	0.904	0.982	1.04
W fixed	0.977	1.01	0.997	1.03	0.962	0.957	0.913	1.05	1.08
Y fixed	0.854	1.01	1.04	1	0.931	0.846	0.866	1.02	0.997
pThr fixed	1.01	1	3.53	66.5	0.946	1.02	1.15	1.16	0.927
pTyr fixed	1.14	1.04	2.26	2.62	1.66	1.13	1	1.15	0.929

HASPIN, construct: aa452-798, human (from UniProt Q8TF76)
relative phosphorylation
Details	at +1	at +2	at +3	at +4	at -1	at -2	at -3	at -4	at -5
A fixed	0.379	1.04	0.824	0.822	0.515	2.18	0.883	0.899	0.836
D fixed	0.166	0.469	0.344	0.766	0.155	0.679	0.544	0.634	0.517
E fixed	0.161	0.359	0.28	0.404	0.158	0.483	0.577	0.767	0.526
F fixed	0.587	0.877	0.984	0.829	0.354	0.76	0.749	0.936	0.812
G fixed	0.467	0.751	1.02	1.03	0.615	1.17	1.1	0.985	0.887
H fixed	0.682	1.36	1.09	1.14	0.606	0.783	1.11	0.964	1.01
I fixed	0.779	0.69	0.652	0.819	0.286	0.734	0.693	0.844	2.68
K fixed	5.48	1.95	1.81	2.09	1.5	1.39	1.92	1.39	1.23
L fixed	0.621	0.783	0.797	0.749	0.294	0.464	0.694	1.54	0.645
M fixed	0.766	1.56	0.782	1.01	0.42	0.47	0.644	0.933	0.777
N fixed	0.295	0.762	0.801	0.86	0.427	0.737	0.941	0.738	0.763
P fixed	0.807	0.559	0.714	0.801	0.493	1.83	1.12	0.987	1.32
Q fixed	0.469	1.19	0.819	1	0.591	0.672	0.834	0.974	0.722
R fixed	2.67	1.78	3.05	1.65	9.3	1.83	2.79	1.57	1.33
V fixed	0.622	0.657	0.731	0.714	0.285	1.27	0.768	0.951	0.982
W fixed	0.51	1.25	1.09	1.33	0.313	0.749	0.82	0.918	0.922
Y fixed	1.54	0.971	1.21	0.979	0.683	0.809	0.807	0.969	1.05
pThr fixed	0.315	0.44	0.466	0.648	0.379	1.23	1.14	0.928	0.991
pTyr fixed	0.322	0.359	0.492	0.589	0.582	0.966	1.09	0.743	1.01

Reference: the supplement of paper PMC9876800
